Source: publication PMC4671672

Assays:
[1] = target: FLAG-NKX2-5 (mouse NKX2-5, pEF-FLAG-NKX2-5) (mouse) (UniProt P42582); test: co-IP; protein extracts of COS-1 cells expressing FLAG-NKX2-5 (50 ug) and of COS-1 cells expressing GATA4 (30-84 ug) mixed; agarose bound anti-FLAG M2 antibody, overnight at +4°C in lysis buffer (20 mM Tris pH 7.5, 150 mM NaCl, 1 mM EDTA, 1 mM EGTA, 1% Triton X-100, 2.5 mM sodium pyrophosphate); immunoblot with anti-GATA4 and anti-NKX2-5; bands quantified, unspecific binding subtracted, normalized to input and to …
[2] = target: FLAG-NKX2-5 (mouse NKX2-5, pEF-FLAG-NKX2-5) (mouse) (UniProt P42582)

Sequence of UniProt P42582 (P42582 whole entry): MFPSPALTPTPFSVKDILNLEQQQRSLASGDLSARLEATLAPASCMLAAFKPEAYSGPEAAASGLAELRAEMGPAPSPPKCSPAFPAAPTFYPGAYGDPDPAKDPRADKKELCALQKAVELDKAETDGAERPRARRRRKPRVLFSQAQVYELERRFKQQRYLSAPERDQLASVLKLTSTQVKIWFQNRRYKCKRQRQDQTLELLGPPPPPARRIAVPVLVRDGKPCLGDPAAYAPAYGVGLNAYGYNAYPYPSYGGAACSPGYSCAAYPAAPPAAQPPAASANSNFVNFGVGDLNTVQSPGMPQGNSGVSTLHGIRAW

percent decrease of binding vs wtGATA4 [1] [%] | Substance | other results
61 | mouse GATA4 K299A (natural protein) | 
62 | mouse GATA4 M298Y (natural protein) | 
 | mouse GATA4 N272D (natural protein) | GATA4-NKX2-5 transcriptional synergy, 3xNKE luciferase reporter, COS-1 cells; reduction vs wtGATA4 [2]: 79%
 | mouse GATA4 N272S (natural protein) | GATA4-NKX2-5 transcriptional synergy, 3xNKE luciferase reporter, COS-1 cells; reduction vs wtGATA4 [2]: 65%
47 | mouse GATA4 Q274H (natural protein) | 
36 | mouse GATA4 R264A (natural protein) | 
84 | mouse GATA4 R283A (natural protein) | 
91 | mouse GATA4 R283Q (natural protein) | 
89 | mouse GATA4 R319C (natural protein) | 
 | mouse GATA4 V217Y (natural protein) | GATA4-NKX2-5 transcriptional synergy, 3xNKE luciferase reporter, COS-1 cells; vs wtGATA4-NKX2-5 [2]: 146%; percent increase of binding vs wtGATA4 [1]: 235%
